Data from the RNAGym collection of RNA variant scans (doi:10.1021/acssynbio.7b00057).

B1: Pistol ribozyme (parent)
chain: GGGUCGUUGUUCCAUAAUCGCGUGGAUAUGGCACGCAAGUUUCUACCGGGCACCGUAAAUGUCCGACUGGAGCCGUUCGGGCGGCUAUAAACAGACCUCAGGCCCGAAGCGUGGCGGCACCUGCCGCCGGUGGUAAAAAAGAUCGGAAGAGCACACGUCU

Variants of: B1
Experiment: aptazyme ON/OFF ratio, guanine; higher = stronger switching; co-transcriptional cleavage with and without guanine

Compared with U7C U8C U10G U11C C12G C13G, U7C U8C U10G U11C C12G C13U is higher in “aptazyme ON/OFF ratio” value: 1.13 for the first, 1.17 for the second.

U7C U8C U10G U11C C12G C13A and U7C U8G G9A U10A U11C C12A C13U are the same in “aptazyme ON/OFF ratio” value: 1.17 for the first, 1.17 for the second.

U7C U8G G9A U10A U11C C12A C13A and U7C U8G G9A U10A U11C C12A C13G are the same in “aptazyme ON/OFF ratio” value: 1.15 for the first, 1.15 for the second.

First: U7C U8G G9A U10G U11A C12A C13U
Second: U7C U8G G9A U10G U11A C12A C13G
The “aptazyme ON/OFF ratio” value of the first is lower: 1.22 for the first, 1.3 for the second.

Going from U7C U8G G9A U10G U11A C12A C13A to U7C U8G G9A U10A U11C C12G C13G, the “aptazyme ON/OFF ratio” value rises from 1.18 to 1.34.

First: U7C U8G G9A U10A U11C C12G C13U
Second: U7C U8G G9A U10A U11C C12G C13A
The “aptazyme ON/OFF ratio” value of the first is higher: 1.45 for the first, 1.32 for the second.

Going from U7C U8C U10G U11A C12A C13A to U7C U8C U10G U11A C12A C13U, the “aptazyme ON/OFF ratio” value rises from 1.11 to 1.25.

First: U7C U8C U10G U11A C12A C13G
Second: U7C U8C U11G C12U C13U
The “aptazyme ON/OFF ratio” value of the first is lower: 1.12 for the first, 1.22 for the second.

Compared with U7C U8C U11G C12U C13A, U7C U8C U11G C12U C13G is lower in “aptazyme ON/OFF ratio” value: 1.14 for the first, 1.11 for the second.

Compared with U7C U8C U10G U11G C12G, U7C U8C U10G U11G C12U is higher in “aptazyme ON/OFF ratio” value: 1.2 for the first, 1.22 for the second.

Compared with U7C U8C U10G U11G C12A, U7C U8G G9A U10G U11A is lower in “aptazyme ON/OFF ratio” value: 1.26 for the first, 1.05 for the second.

Compared with U7C U8G G9A U10G U11C, U7C U8G G9A U10C U11A C12G is higher in “aptazyme ON/OFF ratio” value: 1.06 for the first, 1.13 for the second.

Going from U7C U8G G9A U10C U11A C12U to U7C U8G G9A U10C U11A C12A, the “aptazyme ON/OFF ratio” value rises from 1.09 to 1.15.

First: U7C U8G G9A U10G U11C C12G C13U
Second: U7C U8G G9A U10G U11C C12G C13A
The “aptazyme ON/OFF ratio” value of the first is lower: 1.19 for the first, 1.2 for the second.

First: U7C U8G G9A U10G U11C C12G C13G
Second: U7C U8G G9A U10G U11A C12U C13U
The “aptazyme ON/OFF ratio” value of the first is higher: 1.41 for the first, 1.32 for the second.

First: U7C U8G G9A U10G U11A C12U C13A
Second: U7C U8G G9A U10G U11A C12U C13G
The “aptazyme ON/OFF ratio” value of the first is higher: 1.46 for the first, 1.36 for the second.

Compared with U7C U8G G9A U10G C12U, U7C U8G G9A U10G C12G is lower in “aptazyme ON/OFF ratio” value: 1.37 for the first, 1.34 for the second.

Compared with U7C U8G G9A U10G C12A, U7C U8G C12A C13A is lower in “aptazyme ON/OFF ratio” value: 1.37 for the first, 1.22 for the second.

First: U7C U8G C12A C13U
Second: U7C U8G C12A C13G
The “aptazyme ON/OFF ratio” value of the first is higher: 1.27 for the first, 1.08 for the second.

Going from U7C U8G G9A C12G C13A to U7C U8G G9A C12G C13G, the “aptazyme ON/OFF ratio” value falls from 1.15 to 1.12.

Compared with U7C U8G G9A C12G C13U, U7C U8G G9A U10C U11C C12A C13A is lower in “aptazyme ON/OFF ratio” value: 1.21 for the first, 1.03 for the second.

Compared with U7C U8G G9A U10C U11C C12A C13U, U7C U8G G9A U10C U11C C12A C13G is lower in “aptazyme ON/OFF ratio” value: 1.06 for the first, 1.04 for the second.

Compared with U7C U8G G9A U10G C13G, U7C U8G G9A U10G C13U is higher in “aptazyme ON/OFF ratio” value: 1.16 for the first, 1.54 for the second.

Going from U7C U8G G9A U10G C13A to U7C U8C U10G U11A C12A, the “aptazyme ON/OFF ratio” value rises from 1.23 to 1.3.

First: U7C U8C U10G U11A C12G
Second: U7C U8C U10G U11A C12U
The “aptazyme ON/OFF ratio” value of the first is higher: 1.14 for the first, 1.12 for the second.

First: U7C U8C U10C U11G C12U
Second: U7C U8C U10C U11G C12A
The “aptazyme ON/OFF ratio” value of the first is lower: 1.2 for the first, 1.38 for the second.

Compared with U7C U8C U10C U11G C12G, U7C U8G G9A U10A U11C C12U C13G is lower in “aptazyme ON/OFF ratio” value: 1.18 for the first, 1.08 for the second.

Compared with U7C U8G G9A U10A U11C C12U C13A, U7C U8G G9A U10A U11C C12U C13U is lower in “aptazyme ON/OFF ratio” value: 1.14 for the first, 1.08 for the second.

First: U7C U8G G9A U10G U11A C12A
Second: U7C U8G G9A U10G U11A C12G
The “aptazyme ON/OFF ratio” value of the first is higher: 1.47 for the first, 1.24 for the second.

Going from U7C U8G G9A U10G U11A C12U to U7C U8G G9A C12A C13A, the “aptazyme ON/OFF ratio” value rises from 1.16 to 1.28.

Going from U7C U8G G9A C12A C13G to U7C U8G G9A C12A C13U, the “aptazyme ON/OFF ratio” value rises from 1.16 to 1.29.

Compared with U7C U8G G9A U10A C12A C13U, U7C U8G G9A U10A C12A C13G is lower in “aptazyme ON/OFF ratio” value: 1.19 for the first, 1.1 for the second.

First: U7C U8G G9A U10A C12A C13A
Second: U7C U8C U11A C13A
The “aptazyme ON/OFF ratio” value of the first is lower: 1.17 for the first, 1.21 for the second.

Going from U7C U8C U11A C13U to U7C U8C U11A C13G, the “aptazyme ON/OFF ratio” value falls from 1.27 to 1.19.

U7C U8G G9A U10C U11A C12U C13G and U7C U8G G9A U10C U11A C12U C13U are the same in “aptazyme ON/OFF ratio” value: 1.05 for the first, 1.05 for the second.

Compared with U7C U8G G9A U10C U11A C12U C13A, U7C U8G G9A U10A U11G C13A is higher in “aptazyme ON/OFF ratio” value: 1.07 for the first, 1.2 for the second.

First: U7C U8G G9A U10A U11G C13G
Second: U7C U8G G9A U10A U11G C13U
The “aptazyme ON/OFF ratio” value of the first is lower: 1.02 for the first, 1.27 for the second.

Compared with U7C U8C U10G U11C C12U, U7C U8C U10G U11C C12G is higher in “aptazyme ON/OFF ratio” value: 1.22 for the first, 1.4 for the second.

Going from U7C U8C U10G U11C C12A to U7C U8C U11G C13U, the “aptazyme ON/OFF ratio” value falls from 1.41 to 1.3.

First: U7C U8C U11G C13A
Second: U7C U8C U11G C13G
The “aptazyme ON/OFF ratio” value of the first is lower: 1.24 for the first, 1.28 for the second.

First: U7C U8G G9A U10C C12U C13G
Second: U7C U8G G9A U10C C12U C13U
The “aptazyme ON/OFF ratio” value of the first is lower: 1.07 for the first, 1.1 for the second.

Compared with U7C U8G G9A U10C C12U C13A, U7C U8G G9A U10A C13U is higher in “aptazyme ON/OFF ratio” value: 1.08 for the first, 1.15 for the second.
